{"source": "patent US20110225664", "about": "“MEGANUCLEASE VARIANTS CLEAVING A DNA TARGET SEQUENCE FROM A GLUTAMINE SYNTHETASE GENE AND USES THEREOF” (Cellectis, published 2011)", "assay_in_all_cases": "cell_activity; CHO extrachromosomal SSA assay", "key": {"[1]": {"biological_target": "T1, I-CreI heterodimer Mt 3B + Mt 4A (Chlamydomonas reinhardtii (engineered), UniProt P05725;P05725 SEQ:1-167,SEQ:1-167)", "T1 chain 1": "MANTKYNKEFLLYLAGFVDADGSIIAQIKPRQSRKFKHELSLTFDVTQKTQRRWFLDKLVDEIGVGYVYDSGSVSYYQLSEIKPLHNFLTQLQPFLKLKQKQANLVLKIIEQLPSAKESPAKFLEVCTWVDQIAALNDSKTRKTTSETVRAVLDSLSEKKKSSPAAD", "T1 chain 2": "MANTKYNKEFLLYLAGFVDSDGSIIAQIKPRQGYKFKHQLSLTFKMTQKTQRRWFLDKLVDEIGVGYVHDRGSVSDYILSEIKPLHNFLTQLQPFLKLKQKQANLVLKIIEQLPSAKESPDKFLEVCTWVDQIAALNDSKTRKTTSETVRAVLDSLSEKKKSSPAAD", "description": "(§1) CHO cells were transfected with Polyfect® transfection reagent according to the supplier's protocol (QIAGEN). 72 hours after transfection, the level of Beta galactosidase expression for each transfection was quantified using the Beta-Glo® Assay System (Promega). The Beta-Glo Assay contains a luciferin-galactoside substrate (6-O-β-galactopyranosylluciferin) that can be cleaved by β-galactosidase to form luciferin that is then utilized in a firefly luciferase reaction to generate light. For each transfection, approximately 100,000 cells in 100 μl of medium were combined with an equal volume of Beta-Glo lysis/revelation buffer as described by the manufacturer (Promega). After 30 minutes of incubation at room temperature, signal was measured with a luminometer (Perkin Elmer Victor multilabel plate reader).\n(§2) Several variants described in examples 3, 5, 6, 7 and 8 were first recloned in pCLS1768 (FIG. 16). Then, in order to identify the heterodimer displaying the maximal cleavage activity with the GSCHO1 target in CHO cells, I-CreI variants cleaving the GSCHO1.3 or GSCHO1.4 targets (described in examples 3, 5, 6, 7 and 8) were tested together as heterodimers against the GSCHO1 target in the CHO extrachromosomal assay."}, "[2]": {"biological_target": "T2, I-CreI heterodimer Mt 3A + Mt 4A (Chlamydomonas reinhardtii (engineered), UniProt P05725;P05725 SEQ:1-167,SEQ:1-167)", "T2 chain 1": "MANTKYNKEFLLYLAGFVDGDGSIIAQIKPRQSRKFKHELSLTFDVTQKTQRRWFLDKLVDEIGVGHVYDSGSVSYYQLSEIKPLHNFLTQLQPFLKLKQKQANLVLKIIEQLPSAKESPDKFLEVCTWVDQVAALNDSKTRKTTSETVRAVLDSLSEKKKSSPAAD", "T2 chain 2": "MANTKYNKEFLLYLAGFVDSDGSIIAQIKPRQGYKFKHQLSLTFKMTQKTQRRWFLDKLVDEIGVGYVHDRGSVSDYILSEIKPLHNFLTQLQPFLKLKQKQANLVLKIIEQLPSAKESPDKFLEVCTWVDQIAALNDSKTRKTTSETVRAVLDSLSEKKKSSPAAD", "description": "as §1, §2"}, "[3]": {"biological_target": "T3, I-CreI heterodimer Mt 3C + Mt 4B (Chlamydomonas reinhardtii (engineered), UniProt P05725;P05725 SEQ:1-167,SEQ:1-167)", "T3 chain 1": "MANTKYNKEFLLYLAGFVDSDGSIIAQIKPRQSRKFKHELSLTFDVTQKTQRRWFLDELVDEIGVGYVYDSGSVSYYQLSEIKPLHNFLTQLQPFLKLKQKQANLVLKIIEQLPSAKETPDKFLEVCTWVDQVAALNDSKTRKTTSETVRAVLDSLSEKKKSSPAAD", "T3 chain 2": "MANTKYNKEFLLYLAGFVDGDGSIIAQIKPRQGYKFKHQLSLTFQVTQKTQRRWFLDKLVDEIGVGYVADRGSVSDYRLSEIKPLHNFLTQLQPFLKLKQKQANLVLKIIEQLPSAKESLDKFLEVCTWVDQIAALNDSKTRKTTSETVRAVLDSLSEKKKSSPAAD", "description": "as §1, §2"}, "[4]": {"biological_target": "T4, I-CreI heterodimer Mt 3B + Mt 4C (Chlamydomonas reinhardtii (engineered), UniProt P05725;P05725 SEQ:1-167,SEQ:1-167)", "T4 chain 1": "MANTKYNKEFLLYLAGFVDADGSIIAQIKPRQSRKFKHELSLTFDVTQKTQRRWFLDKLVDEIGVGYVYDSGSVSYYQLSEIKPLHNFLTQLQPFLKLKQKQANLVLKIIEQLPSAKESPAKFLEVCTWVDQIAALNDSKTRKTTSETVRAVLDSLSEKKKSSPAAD", "T4 chain 2": "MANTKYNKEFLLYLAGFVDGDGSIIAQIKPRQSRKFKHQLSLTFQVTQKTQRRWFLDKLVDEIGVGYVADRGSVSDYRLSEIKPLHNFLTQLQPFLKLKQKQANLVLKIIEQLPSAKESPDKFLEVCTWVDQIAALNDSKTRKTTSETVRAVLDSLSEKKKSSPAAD", "description": "as §1, §2"}, "[5]": {"biological_target": "T5, I-CreI heterodimer Mt 3A + Mt 4C (Chlamydomonas reinhardtii (engineered), UniProt P05725;P05725 SEQ:1-167,SEQ:1-167)", "T5 chain 1": "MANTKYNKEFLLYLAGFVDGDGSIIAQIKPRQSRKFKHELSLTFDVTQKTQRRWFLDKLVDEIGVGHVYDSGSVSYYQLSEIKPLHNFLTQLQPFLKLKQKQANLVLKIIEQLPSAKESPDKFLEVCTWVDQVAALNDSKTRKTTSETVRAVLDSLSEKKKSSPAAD", "T5 chain 2": "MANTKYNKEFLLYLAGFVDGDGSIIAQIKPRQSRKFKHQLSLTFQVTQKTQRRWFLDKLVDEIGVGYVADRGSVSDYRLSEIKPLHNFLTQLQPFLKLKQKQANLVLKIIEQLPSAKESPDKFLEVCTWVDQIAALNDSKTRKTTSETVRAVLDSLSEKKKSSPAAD", "description": "as §1, §2"}, "[6]": {"biological_target": "T6, I-CreI heterodimer Mt 3B + Mt 4D (Chlamydomonas reinhardtii (engineered), UniProt P05725;P05725 SEQ:1-167,SEQ:1-167)", "T6 chain 1": "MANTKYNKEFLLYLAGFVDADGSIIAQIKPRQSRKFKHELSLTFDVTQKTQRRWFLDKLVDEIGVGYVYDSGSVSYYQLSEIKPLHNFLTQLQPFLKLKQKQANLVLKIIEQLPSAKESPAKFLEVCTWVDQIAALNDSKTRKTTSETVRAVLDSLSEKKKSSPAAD", "T6 chain 2": "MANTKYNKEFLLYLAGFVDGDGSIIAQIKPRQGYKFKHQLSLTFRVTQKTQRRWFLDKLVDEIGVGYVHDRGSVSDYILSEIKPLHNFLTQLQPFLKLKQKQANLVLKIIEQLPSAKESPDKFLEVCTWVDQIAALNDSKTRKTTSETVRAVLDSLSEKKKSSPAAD", "description": "as §1, §2"}, "[7]": {"biological_target": "T7, I-CreI heterodimer Mt 3A + Mt 4B (Chlamydomonas reinhardtii (engineered), UniProt P05725;P05725 SEQ:1-167,SEQ:1-167)", "T7 chain 1": "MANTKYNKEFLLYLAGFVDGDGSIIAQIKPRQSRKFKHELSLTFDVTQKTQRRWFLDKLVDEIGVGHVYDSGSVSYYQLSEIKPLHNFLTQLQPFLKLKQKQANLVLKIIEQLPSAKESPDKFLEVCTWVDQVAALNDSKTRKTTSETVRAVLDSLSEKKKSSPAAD", "T7 chain 2": "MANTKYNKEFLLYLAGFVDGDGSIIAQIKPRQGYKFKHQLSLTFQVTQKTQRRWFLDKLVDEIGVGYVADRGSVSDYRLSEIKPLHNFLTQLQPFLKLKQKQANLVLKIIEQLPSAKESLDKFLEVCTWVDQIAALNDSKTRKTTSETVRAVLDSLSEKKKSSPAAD", "description": "as §1, §2"}, "[8]": {"biological_target": "T8, I-CreI heterodimer Mt 3C + Mt 4C (Chlamydomonas reinhardtii (engineered), UniProt P05725;P05725 SEQ:1-167,SEQ:1-167)", "T8 chain 1": "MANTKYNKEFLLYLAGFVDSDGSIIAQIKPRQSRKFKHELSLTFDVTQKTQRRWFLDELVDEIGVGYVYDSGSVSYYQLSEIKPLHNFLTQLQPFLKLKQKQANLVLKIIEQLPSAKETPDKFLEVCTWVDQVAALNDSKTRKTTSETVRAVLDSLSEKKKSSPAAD", "T8 chain 2": "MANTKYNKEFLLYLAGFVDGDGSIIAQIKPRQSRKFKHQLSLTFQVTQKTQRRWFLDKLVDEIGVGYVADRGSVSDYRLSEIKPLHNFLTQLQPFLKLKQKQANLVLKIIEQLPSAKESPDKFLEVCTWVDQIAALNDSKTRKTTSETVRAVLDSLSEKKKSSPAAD", "description": "as §1, §2"}, "[9]": {"biological_target": "T9, I-CreI heterodimer Mt 3B + Mt 4B (Chlamydomonas reinhardtii (engineered), UniProt P05725;P05725 SEQ:1-167,SEQ:1-167)", "T9 chain 1": "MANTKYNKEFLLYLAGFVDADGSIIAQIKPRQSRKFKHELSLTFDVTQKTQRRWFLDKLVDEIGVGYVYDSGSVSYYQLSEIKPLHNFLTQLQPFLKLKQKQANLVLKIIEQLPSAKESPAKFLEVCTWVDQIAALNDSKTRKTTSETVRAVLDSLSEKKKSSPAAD", "T9 chain 2": "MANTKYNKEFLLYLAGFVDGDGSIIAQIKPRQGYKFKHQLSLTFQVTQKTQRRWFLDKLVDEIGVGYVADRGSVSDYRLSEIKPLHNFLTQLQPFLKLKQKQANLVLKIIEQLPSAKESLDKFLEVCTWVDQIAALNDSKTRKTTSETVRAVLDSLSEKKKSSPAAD", "description": "as §1, §2"}, "[10]": {"biological_target": "T10, I-CreI heterodimer Mt 3A + Mt 4D (Chlamydomonas reinhardtii (engineered), UniProt P05725;P05725 SEQ:1-167,SEQ:1-167)", "T10 chain 1": "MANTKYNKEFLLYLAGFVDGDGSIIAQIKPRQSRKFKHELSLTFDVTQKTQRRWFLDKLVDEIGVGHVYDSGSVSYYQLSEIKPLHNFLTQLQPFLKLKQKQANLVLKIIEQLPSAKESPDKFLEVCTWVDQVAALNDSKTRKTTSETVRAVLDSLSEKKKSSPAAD", "T10 chain 2": "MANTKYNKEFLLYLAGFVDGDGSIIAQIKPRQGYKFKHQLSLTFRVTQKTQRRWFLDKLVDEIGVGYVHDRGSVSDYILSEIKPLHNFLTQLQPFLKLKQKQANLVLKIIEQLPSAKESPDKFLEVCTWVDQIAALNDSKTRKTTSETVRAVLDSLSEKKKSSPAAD", "description": "as §1, §2"}, "[11]": {"biological_target": "T11, I-CreI heterodimer Mt 3C + Mt 4D (Chlamydomonas reinhardtii (engineered), UniProt P05725;P05725 SEQ:1-167,SEQ:1-167)", "T11 chain 1": "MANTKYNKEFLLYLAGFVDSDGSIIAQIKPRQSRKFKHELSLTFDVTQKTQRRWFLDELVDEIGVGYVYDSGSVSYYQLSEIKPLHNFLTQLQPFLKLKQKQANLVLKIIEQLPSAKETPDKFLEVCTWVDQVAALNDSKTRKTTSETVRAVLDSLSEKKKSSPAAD", "T11 chain 2": "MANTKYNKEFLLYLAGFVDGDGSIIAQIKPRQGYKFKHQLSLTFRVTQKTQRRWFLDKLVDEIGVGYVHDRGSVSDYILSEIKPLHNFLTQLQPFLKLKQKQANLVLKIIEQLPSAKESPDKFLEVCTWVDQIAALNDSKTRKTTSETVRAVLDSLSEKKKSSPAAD", "description": "as §1, §2"}}, "data": [{"binder": "GSCHO1 (dsDNA) DNA 1: TGGCATACAAGTTTCTGCCCCAGGGTGAGAAAGTCCAACAATCGTCTGTCA DNA 2: TGACAGACGATTGTTGGACTTTCTCACCCTGGGGCAGAAACTTGTATGCCA", "values": [{"measurement": "activity", "setting": "[1]", "value": 500000, "unit": "luminescence units"}, {"measurement": "activity", "setting": "[2]", "value": "2.8e+06", "unit": "luminescence units"}, {"measurement": "activity", "setting": "[3]", "value": "2.8e+06", "unit": "luminescence units"}, {"measurement": "activity", "setting": "[4]", "value": "3.1e+06", "unit": "luminescence units"}, {"measurement": "activity", "setting": "[5]", "value": "2e+06", "unit": "luminescence units"}, {"measurement": "activity", "setting": "[6]", "value": "3.1e+06", "unit": "luminescence units"}, {"measurement": "activity", "setting": "[7]", "value": "2.3e+06", "unit": "luminescence units"}, {"measurement": "activity", "setting": "[8]", "value": "2.9e+06", "unit": "luminescence units"}, {"measurement": "activity", "setting": "[9]", "value": "3.1e+06", "unit": "luminescence units"}, {"measurement": "activity", "setting": "[10]", "value": "2.5e+06", "unit": "luminescence units"}, {"measurement": "activity", "setting": "[11]", "value": "2.4e+06", "unit": "luminescence units"}]}]}
